In the experiment the target is E. coli 30S initiation complex (30S IC) lacking IF2 and IF3 (E. coli) (UniProt P69222). In words: FRET or BRET.
UniProt P69222, sequence (P69222 whole entry, looked up, one chain of several): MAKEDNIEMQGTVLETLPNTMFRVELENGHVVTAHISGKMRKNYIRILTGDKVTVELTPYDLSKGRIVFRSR

As for “Cy5-labeled Initiation Factor 2 (IF2), E. coli (from UniProt P0A705 1-890) (natural protein)”, the fold change of Kd, IF2 bound to ppGpp relative to IF2 bound to GTP was found to be 10 fold.

The values above are taken from article doi:10.1101/807917.
